From paper PMC12069319, “Transcriptional co-regulator OCA-B/Pou2af1 restricts Th2 differentiation” come the findings set out here.

This data set addresses Oct1 DNA binding domain (Oct1-DBD) (human (from pBabe-hOct1), UniProt P14859 280-438). Kind of data set: EMSA; EMSA: 0.6X buffer D (1X: 20 mM HEPES, 100 mM KCl, 1 mM DTT), 50 ng/ul poly-dI/dC, 1 ug/ul BSA, on ice 15 min, 6% native PAGE in 0.5X TBE; probe 50 nM (1 nM for). The settings on record: protein: recombinant; tags: His (pET28a); blunt.

Oct1 DNA binding domain (Oct1-DBD), sequence (P14859 280-438): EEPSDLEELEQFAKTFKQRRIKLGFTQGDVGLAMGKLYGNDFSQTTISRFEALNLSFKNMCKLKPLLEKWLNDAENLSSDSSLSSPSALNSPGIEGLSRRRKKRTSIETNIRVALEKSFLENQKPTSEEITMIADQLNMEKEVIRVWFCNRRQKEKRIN

B1: RHS6-Cy5 (dsDNA)
DNA 1: CACCATGCAAAGGATGTGCGCGGACTCCCTTCCATTTGCTGGCCTCTTATCTGATA
DNA 2: TATCAGATAAGAGGCCAGCAAATGGAAGGGAGTCCGCGCACATCCTTTGCATGGTG
On to B1, for which the binding result is “binds”.

B2: RHS5_12-Cy5 (dsDNA)
DNA 1: TCGAGAAGCGCTGATTAGCATCTGTCATTA
DNA 2: TAATGACAGATGCTAATCAGCGCTTCTCGA
B2: the binding result was “binds”.
